Measured values reported in patent US12480163.

Molecular target: p53 (tumor protein 53, TP53)

B1: Wip1 (wild-type p53-induced phosphatase 1; encoded by the PPM1D gene) (protein)
chain: MAGLYSLGVSVFSDQGGRKYMEDVTQIVVEPEPTAEEKPSPRRSLSQPLPPRPSPAALPGGEVSGKGPAVAAREARDPLPDAGASPAPSRCCRRRSSVAFFAVCDGHGGREAAQFAREHLWGFIKKQKGFTSSEPAKVCAAIRKGFLACHLAMWKKLAEWPKTMTGLPSTSGTTASVVIIRGMKMYVAHVGDSGVVLGIQDDPKDDFVRAVEVTQDHKPELPKERERIEGLGGSVMNKSGVNRVVWKRPRLTHNGPVRRSTVIDQIPFLAVARALGDLWSYDFFSGEFVVSPEPDTSVHTLDPQKHKYIILGSDGLWNMIPPQDAISMCQDQEEKKYLMGEHGQSCAKMLVNRALGRWRQRMLRADNTSAIVICISPEVDNQGNFTNEDELYLNLTDSPSYNSQETCVMTPSPCSTPPVKSLEEDPWPRVNSKDHIPALVRSNAFSENFLEVSAEIARENVQGVVIPSKDPEPLEENCAKALTLRIHDSLNNSLPIGLVPTNSTNTVMDQKNLKMSTPGQMKAQEIERTPPTNFKRTLEESNSGPLMKKHRRNGLSRSSGAQPASLPTTSQRKNSVKLTMRRRLRGQKKIGNPLLHQHRKTVCVC
B1 was tested, and the “phospho-Serine15-p53 protein levels (Western blot) after combined ATSP-7041 and GSK2830371 treatment” value was “the combination of ATSP-7041 and GSK2830371 increased the phosphorylation of p53 at Serine 15 in two Ewing sarcoma cell lines” and the “phosphorylation of Serine 15 of p53 (Western blot) after GSK2830371 treatment” value was “GSK2830371 reduced the protein levels of Wip1 in a time-dependent manner and triggered a surge in phosphorylation of Serine 15 of p53”.
